In the supplement of paper PMC10567573:

B1: TNXB (parent)
chain: LLQRELMVPGTRHSAVLRDLRSGT
B2: RHOBTB2 (parent)
chain: NQEITKAFHVRRTNRVKECLAKGT

Variants of: B1
Experiment: protein stability index of a GFP-peptide fusion (GPS, HEK-293T) (PSI 1-6); higher = more stable
Settings: c terminus: a fixed tail appended
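Also: lentivirally expressed fusions sorted by FACS into six bins by GFP to DsRed ratio, PSI derived from sequencing read proportions per bin multiplied by bin number.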

Protein stability index of substitutions, site by site:
D19: R 1.69, L 1.75, T 2.46, K 2.07, P 2.69, M 2.39, Q 2.29, W 1.73, S 2.31, N 2.06, Y 2.23, V 1.71
R21: W 2.75, Q 2.01, K 3.03, F 1.95, Y 2.12, M 1.99, V 1.88, D 2.69, L 1.99, S 2.06, C 2.06, I 2.13, H 3.21, N 2.34, A 2.73, T 2.18, G 2.43, P 2.85, E 2.58
L20: E 3.37, I 2.52, Q 2.89, P 2.53, S 3.38, H 2.7, T 2.66, M 2.25, F 1.92, V 2.63, W 2.3, G 3.37, D 3.65, R 2.86, N 3.53, Y 2.27, C 2.85, A 2.97, K 3.02
S22: G 2.12, E 2.41, I 2.5, N 2.09, Q 3.04, T 2.39, W 1.71, H 2.2, V 1.82, R 2.78, K 2.77, P 2.43, Y 2.18, D 2.96, A 2.32, F 1.58, L 2.04, M 2.19, C 2
T24: D 2.5, F 2.13, W 1.84, L 2, R 2.88, A 2.7, V 2.29, H 2.13, E 1.83, C 1.77, S 2.2, I 1.72, G 3.51, Y 2.64, M 2.29, N 2.37, K 2.03, P 2.54, Q 2.49
G23: T 2.43, P 2.14, K 2.92, M 2.22, A 2.31, E 3.05, Q 3.73, H 2.31, L 1.81, V 2.13, W 2.09, C 2.36, D 3.38, Y 2.14, I 2.35, F 2.82, N 2.58, R 2.72, S 2.94

Variants of: B2
Experiment: as above
Settings: c terminus: a fixed tail appended

Protein stability index, by site and new letter:
E3: M 2.87, G 3.15, C 2.31, I 2.57, W 3.8, L 3.66, P 3.38, N 3.38, R 3.02, H 2.47, F 2.04, Y 2.23, K 3.06, S 2.26, V 2.4, D 2.63, Q 2.22
Q2: N 3.42, G 2.39, D 4.2, I 2.6, A 3.21, F 3.01, V 3.5, C 3.16, L 2.4, H 3.53, P 3.4, W 2.69, M 3.01, T 3.74, E 4.05, K 3.78, R 2.83, Y 3.31
N1: C 2.25, Q 3.87, G 2.88, E 4.01, F 2.07, M 2.66, Y 2.26, V 3.07, I 1.59, S 3.94, P 4.54, K 3.49, T 1.57, A 4.01, H 2.86, W 2.45, L 2.31
I4: L 3.51, A 4.92, F 3.46, D 4.37, K 3.75, H 4.13, G 4.42, E 4.32
